These results are taken from PMC10849636 (bioRxiv, 2024).

This data set deals with the molecule itself. The experiment in a line: SEC.

B1: full-length WT HIV-1 integrase (IN) (enzyme)
chain: FLDGIDKAQEEHEKYHSNWRAMASDFNLPPVVAKEIVASCDKCQLKGEAMHGQVDCSPGIWQLDCTHLEGKVILVAVHVASGYIEAEVIPAETGQETAYFLLKLAGRWPVKTVHTDNGSNFTSTTVKAACWWAGIKQEFGIPYNPQSQGVIESMNKELKKIIGQVRDQAEHLKTAVQMAVFIHNFKRKGGIGGYSAGERIVDIIATDIQTKELQKQITKIQNFRVYYRDSRDPVWKGPAKLLWKGEGAVVIQDNSDIKVVPRRKAKIIRDYGKQMAGDDCVASRQDED
Regarding B1, the binding result was “binds”.
